Measurements taken from patent US6858210B1, “Therapeutic and diagnostic domain 1 β2GPI polypeptides and methods of using same” (La Jolla Pharmaceutical Co., priority 1998, dated 2005).
Read-outs that look alike come from different tables or passages of the source.

How the values were obtained:
[1] = tested on: human β2GPI-dependent antiphospholipid antibody; experiment: Micropanning of mutant domain 1 phage, patient antibodies; assay type: binding; details: for Micropan score: Table 7B
[2] = tested on: rabbit anti-human β2GPI; experiment: Micropanning of mutant domain 1 phage, rabbit antibody; assay type: binding; parameters: key: 0 (<10 colonies) to 4+ (confluent) semiquantitative colony score; details: for Micropan score: Table 7B; for μpan score: Table 7A
Experimental: Error prone PCR was carried out as follows. Domain 1 of human β2GPI was amplified by PCR under conditions that enhance the error rate of Taq polymerase. The primers were such that amino acids 1-64 were amplified. A Sfc 1 restriction site was incorporated as part of amino acid 1. At the 3′ end a Sal 1 restriction site was incorporated after amino acid 64. The PCR reaction was done as described by Leung et al. (1989) Technique 1:11, using 0.25 mM MnCl2. The PCR product was digested with Sfc 1 and Sal 1 and cloned into fd-tet-DOG2 that had been digested with Apal 1 and Sal 1. This positions domain 1 at the N-terminus of pill immediately after the pill signal sequence. The ligation reaction was electroporated in E. coli K91. Phage were harvested and titered by standard methods. Resulting phage clones were assayed using a micropanning technique.
Immulon type 2 plates were coated with protein G. Protein G was prepared at 5 μg/mL in 0.1 M NaHCO3 and 100 μL per well was added to the wells of microtitration plates and incubated overnight at 4° C. After discarding excess protein G solution from plates, each well was blocked with 200 μL 2YT for 1 hour at RT with agitation on an oscillating platform. Tris-buffered saline, pH 7.4/0.5% Tween 20 (TBS/Tween), was used with an automatic plate washer to wash the wells 4 times with 200 μL. One hundred μL human β2GPI-dependent antiphospholipid 6626, 6501, 6701, rabbit β2GPI-dependent antiphospholipid, or control normal IgG, diluted to 2.5 μg/mL with 2YT, was added to washed wells. The plate was incubated for 1 hour at room temperature on a rotating platform.
Phage to be tested by micropanning were obtained from the agar plates generated by biopanning. Each clone to be tested was transferred using sterile toothpicks to a separate well of a round-bottom 96-well microtitration plate (Corning, Corning, N.Y.) containing 200 μL 2YT/Tet per well and cultured overnight at 30° C. Following overnight incubation, phage cultures were centrifuged using a microtitration plate holder at 1300×g for 10 minutes at room temperature. Supernatants constituted the source of “neat” phage. The neat phage were diluted 1: 100-1:1000 and 100 μL was added to the plate containing protein G-bound β2GPI-dependent antiphospholipid antibody-6501 and normal IgG prepared as described above. The incubation of dilute phage with aPL antibody or control IgG was carried out for 2 hours at room temperature on a flat rotator. After 9 washes with TBS/Tween in an automated plate washer, the IgG-bound phage was eluted with 20 μL of 0.2 N HCl-glycine/0.1% BSA, pH 2.2. The elution incubation continued for 10 minutes at RT, during which time a new Corning microtitration plate was prepared containing 20 μL of freshly starved E. coli per well and kept chilled. One hundred forty μL of 29 mM Tris was added to the plate containing the phage eluates in order to neutralize the pH, following which 20 μL of phage suspension was transferred from each well to the corresponding well in the plate containing starved E. coli. After a 10 minute incubation at 37° C., 200 μL 2YT was added and incubation carried out an additional 30 minutes at 37° C. Using multichannel pipettors, 8 μL from each well was spotted on a large 2YT/Tet agar plate while retaining the original 8×12 well pattern and orientation from the last microtitration plate. After allowing the spots to dry for 30 minutes, the plate was incubated overnight at 30° C. The following day, colonies were semiquantitatively scored from 0 to 4+, with 0 symbolizing <10 colonies; 1+=10-30; 2+=30 colonies to 70% confluent; 3+=70%-90% confluent; 4+=confluent.
For Table 7A, the rabbit anti-human β2GPI was performed on two separate occasions. Mutations are listed with the original amino acid, the position number, and the identity of the amino acid at that position in the mutant. […] Non-mutated domain 1 have a score of 3+, while domain 5 phage gave a score of −. Silent mutations are not shown. […]

[3] = tested on: affinity purified β2GPI-dependent antiphospholipid antibody; experiment: Competitive inhibition ELISA: recombinant β2GPI proteins compete for antibody binding to coated full length recombinant β2GPI; parameters: species or system human; details: for IC50: read-out: 50% (concentration to give 50% inhibition)
Experimental: Microtiter plates (MaxiSorp™, Nalge Nunc International, Denmark) were coated with 50 μl of full length recombinant β2GPI at 10 μg/ml in 0.1 M bicarbonate, pH 9.5, incubated overnight at 4° C., washed three times with 0.15 M PBS, pH 7.2, and blocked for one hour at room temperature with 75 μl of 2% Non-fat Dried Milk (Carnation, 2% NFDM). Test inhibitors were diluted in 2% NFDM and 25 μl of each dilution was added to coated wells. Affinity purified β2GPI-dependent antiphospholipid antibody was diluted in 2% NFDM and 25 μl, of a constant concentration, was added to the wells, including a group of wells that had no inhibitor, which acted as the positive controls. The contents of the wells were mixed and the plates were incubated at 37° C. for one hour. The plates were washed three times with PBS, 50 μl of alkaline phosphatase conjugated anti-human IgG, gamma chain specific, (Zymed #62-8422) diluted appropriately in 2% NFDM was added and incubated at 37° C. for one hour. The plates were washed three times with PBS, 50 μl of alkaline phosphatase PPMP chromogenic substrate solution was added and incubated for 30 minutes, at room temperature. The Optical Density, at 550 nm, was determined by reading the plates in a microplate autoreader (Bio-Teck Instruments, model EL3 11). The percent inhibition was determined by dividing the OD550 obtained in the presence of inhibitor by the mean OD550 obtained from the wells without inhibitor and then multiplying by 100 (more particularly, [mean A550 obtained from control wells without inhibitor less A550 of background] minus [A550 obtained in presence of inhibitor less A550 of background] divided by [mean A550 obtained from control wells without inhibitor less A550 of background] times 100).
Seven to nine different recombinant β2GPI mutant proteins were used to determine the antigenic specificity of affinity purified β2GPI-dependent antiphospholipid antibody preparations from 13 different patients. Each mutant recombinant β2GPI protein was tested, in a dose dependent fashion, for its ability to inhibit affinity purified β2GPI-dependent antiphospholipid antibody from binding to full length recombinant β2GPI. The following values were also observed for domain 1 only recombinant protein (1 - - - -; see Table 2 for designations): […]

[4] = tested on: affinity purified β2GPI-dependent antiphospholipid antibody; experiment: Direct binding ELISA, nickel chelate-coated wells charged with recombinant β2GPI proteins (no cardiolipin); parameters: species or system human; details: O.D. at 550 nm
Experimental: Nickel Chelate-coated microwell plates (NCP 010 00 Xenopore Corp. 374 Midland Ave. Saddle Brook, N.J. USA) were coated with 50 μl of serial dilutions of the various recombinant β2GPI, in PBS, at room temperature for 2 hours. The plates were washed three times with PBS and blocked with 75 μl of a 1% gelatin (Sigma #G-2500) in PBS for one hour room temperature. […] The plates were washed three times with PBS, 50 μl of alkaline phosphatase conjugated anti-immunoglobulin (anti-human IgG, gamma chain specific, Zymed #62-8422) or anti-rabbit IgG (Zymed #62-6122) diluted appropriately in 1% gelatin was added and incubated at 37° C. for one hour. The plates were washed three times with PBS, 50 μl of alkaline phosphatase PPMP chromogenic substrate solution was added and incubated for 30 minutes at room temperature. The optical density, at 550 nm, was determined by reading the plates in a microplate autoreader (Bio-Teck Instruments, model EL311).
Seven to nine different recombinant β2GPI mutant proteins were examined to determine if they could support the direct binding of affinity purified β2GPI-dependent antiphospholipid antibody preparations in the absence of anionic phospholipid. All recombinant mutant β2GPI were assayed with affinity purified β2GPI-dependent antiphospholipid antibody preparations from 11 different patients. Each mutant recombinant β2GPI protein was tested, in a dose dependent fashion and GST-6his was included as a negative control. The recombinant mutant β2GPI proteins were bound to nickel coated microtiter plates via their 6-his tail. All recombinant mutant β2GPI proteins tested bound rabbit anti-β2GPI showing that they were assessable by antibody (FIG. 5).

B1: Dom1: phage displaying wild type (WT) domain 1 (protein)
chain: GRTCPKPDDLPFSTVVPLKTFYEPGEEITYSCKPGYVSRGGMRKFICPLTGLWPINTLKCTPRV
Micropan score ([1]; antibody 6226): 4 | Micropan score ([1]; antibody 6501): 4 | Micropan score ([1]; antibody 6632): 4 | Micropan score ([1]; antibody 6644): 4 | Micropan score ([1]; antibody 6701): 4 | Micropan score ([1]; antibody 7008): 4 | μpan score ([1]; control phage for Table 7A, antibody not stated): 3+ (3+=70%-90% confluent) | Micropan score ([2]; 1st column): 4 | Micropan score ([2]; 2nd column): 4 | Micropan score ([2]; 3rd column): 4 | Micropan score ([2]; 4th column): 4 | Micropan score ([2]; 5th column): 4

B2: 2A1: phage clone, domain 1 mutant T20S (protein)
chain: GRTCPKPDDLPFSTVVPLKSFYEPGEEITYSCKPGYVSRGGMRKFICPLTGLWPINTLKCTPRV
μpan score ([1]; Table 7A, antibody 6501): 3 | μpan score ([1]; Table 7A, antibody 6626): 3 | μpan score ([1]; Table 7A, antibody 6701): 3 | Micropan score ([1]; antibody 6226): 4 | Micropan score ([1]; antibody 6501): 4 | Micropan score ([1]; antibody 6632): 4 | Micropan score ([1]; antibody 6644): 4 | Micropan score ([1]; antibody 6701): 4 | Micropan score ([1]; antibody 7008): 4 | μpan score ([2]; first (or only) value): 3 | Micropan score ([2]; 1st column): 4 | Micropan score ([2]; 2nd column): 4 | Micropan score ([2]; 3rd column): 4 | Micropan score ([2]; 4th column): 4

B3: D11: phage clone, domain 1 mutant N56D (protein)
chain: GRTCPKPDDLPFSTVVPLKTFYEPGEEITYSCKPGYVSRGGMRKFICPLTGLWPIDTLKCTPRV
μpan score ([2]; first (or only) value): 2 | μpan score ([2]; second value (second occasion)): 3

B4: 3F8: phage clone, domain 1 mutant T50A (protein)
chain: GRTCPKPDDLPFSTVVPLKTFYEPGEEITYSCKPGYVSRGGMRKFICPLAGLWPINTLKCTPRV
Micropan score ([1]; antibody 6226): 2 | Micropan score ([1]; antibody 6501): 2 | Micropan score ([1]; antibody 6632): 2 | Micropan score ([1]; antibody 6644): 3 | Micropan score ([1]; antibody 6701): 2 | Micropan score ([1]; antibody 7008): 3

B5: 2B2: phage clone, domain 1 mutant V37E (protein)
chain: GRTCPKPDDLPFSTVVPLKTFYEPGEEITYSCKPGYESRGGMRKFICPLTGLWPINTLKCTPRV
μpan score ([1]; Table 7A, antibody 6501): 3 | μpan score ([1]; Table 7A, antibody 6626): 3 | μpan score ([1]; Table 7A, antibody 6701): 3 | Micropan score ([1]; antibody 6226): 4 | Micropan score ([1]; antibody 6501): 4 | Micropan score ([1]; antibody 6632): 4 | Micropan score ([1]; antibody 6644): 4 | Micropan score ([1]; antibody 6701): 4 | Micropan score ([1]; antibody 7008): 4 | μpan score ([2]; first (or only) value): 3 | Micropan score ([2]; 1st column): 4 | Micropan score ([2]; 2nd column): 4 | Micropan score ([2]; 3rd column): 4 | Micropan score ([2]; 4th column): 4

B6: 12---: recombinant β2GPI deletion mutant with domains 1 and 2 (protein)
chain: GRTCPKPDDLPFSTVVPLKTFYEPGEEITYSCKPGYVSRGGMRKFICPLTGLWPINTLKCTPRVCPFAGILENGAVRYTTFEYPNTISFSCNTGFYLNGADSAKCTEEGKWSPELPVCAPIIGHHHHHH
Max (maximum inhibition observed at concentrations tested) ([3]; Ab 6203): 20% | IC50 ([3]; Ab 6203): > 10 µM | Max (maximum inhibition observed at concentrations tested) ([3]; Ab 6501): 30% | IC50 ([3]; Ab 6501): > 10 µM | Max (maximum inhibition observed at concentrations tested) ([3]; Ab 6626): 50% | IC50 ([3]; Ab 6626): > 10 µM | Max (maximum inhibition observed at concentrations tested) ([3]; Ab 6632): 70% | IC50 ([3]; Ab 6632): 3 µM | Max (maximum inhibition observed at concentrations tested) ([3]; Ab 6644): 45% | IC50 ([3]; Ab 6644): > 10 µM | Max (maximum inhibition observed at concentrations tested) ([3]; Ab 7008): 40% | IC50 ([3]; Ab 7008): > 10 µM | Max (maximum inhibition observed at concentrations tested) ([3]; Ab 7015): 30% | IC50 ([3]; Ab 7015): > 10 µM | Max (maximum inhibition observed at concentrations tested) ([3]; Ab 7101): 20% | IC50 ([3]; Ab 7101): > 10 µM | Max (maximum inhibition observed at concentrations tested) ([3]; Ab 7104): 90% | IC50 ([3]; Ab 7104): 1 µM | Maximum O.D. ([4]; Ab 6203): 0.119 | Maximum O.D. ([4]; Ab 6501): 0.028 | Maximum O.D. ([4]; Ab 6626): 0.073 | Maximum O.D. ([4]; Ab 6632): 0.016 | Maximum O.D. ([4]; Ab 7008): 0.008 | Maximum O.D. ([4]; Ab 7015): 0.063
